Laboratory results taken from paper PMC6458997 (Molecular Cell, 2019).
Positions count from the first letter of the chain named. Names and notes keep the numbering of the source.

B1: SPbeta AimR (arbitrium peptide receptor / transcription factor AimR of Bacillus subtilis phage SPbeta), full length (natural protein, Bacillus subtilis SPbeta phage, UniProt O64094 1-386, looked up)
chain: MELIRIAMKKDLENDNSLMNKWATVAGLKNPNPLYDFLNHDGKTFNEFSSIVNIVKSQYPDREYELMKDYCLNLDVKTKAARSALEYADANMFFEIEDVLIDSMISCSNMKSKEYGKVYKIHRELSNSVITEFEAVKRLGKLNIKTPEMNSFSRLLLLYHYLSTGNFSPMAQLIKQIDLSEISENMYIRNTYQTRVHVLMSNIKLNENSLEECREYSKKALESTNILRFQVFSYLTIGNSLLFSNYELAQENFLKGLSISVQNENYNMIFQQALCFLNNVWRKENKWINFESDSIMDLQEQAHCFINFNENSKAKEVLDKLDLLVHNDNELAMHYYLKGRLEQNKACFYSSIEYFKKSNDKFLIRLPLLELQKMGENQKLLELLLL
notes: AimR of Bacillus subtilis phage SPbeta, amplified from genomic DNA of Bacillus subtilis strain 168; full-length AimR (residues 1-386); Cloned in pLicSGC1 with N-terminal 6xHis tag and TEV site; digested with TEV protease; A selenomethionine derivative was used to phase the AimR-AimP structure; also called WT AimR; apo AimR; source: E. coli BL21 (DE3) RIL, purified (HisTrap FF, TEV digestion, …)
B2: SPbeta AimR D360A mutant (natural protein, Bacillus subtilis SPbeta phage)
chain: B1 chain with D360A
B3: SPbeta AimR N202A mutant (natural protein, Bacillus subtilis SPbeta phage)
chain: B1 chain with N202A
B4: SPbeta AimP arbitrium peptide GMPRGA (peptide)
peptide: GMPRGA
notes: active (mature) arbitrium hexapeptide AimP of phage SPbeta, product of the yopL gene, which corresponds to phi3T aimP; also called GMPRGA peptide; SPbeta-specific arbitrium peptide; source: synthetic peptide, bought: ProteoGenix (95% purity)

Experiments:
[1] = target: the molecule itself; test: SEC-MALS; as the apo run, with 1 mM AimP peptide added to the injected sample and 1 μM peptide in the running buffer (25 mM Tris pH 8, 250 mM NaCl)
[2] = target: the molecule itself; test: SEC-MALS; 50 μL protein at 5 mg/mL on Superdex 200 HR 10/300 in 25 mM Tris pH 8, 250 mM NaCl; no peptide
[3] = target: B1; test: thermal shift assay (differential scanning fluorimetry); 20 μM protein, 5x Sypro Orange, 20 mM Tris pH 8, 250 mM NaCl, heated 20 to 85°C; apparent Kd from 10 peptide concentrations from 0 to 2 μM, fitted to a single binding site per monomer; conditions: both partners purified

Binder: B1
- stoichiometry N [1]: 2

Binder: B2
- stoichiometry N [2]: 2

Binder: B3
- stoichiometry N [2]: 2

Binder: B4
- Kd [3]: 53.8 nM
- increment in the melting temperature (Tm) of AimR [3]: ~10 °C
